The target of assay [1] is CXCR1 receptor on stably transfected RBL-2H3 cells (UniProt P25024).
For assay [2], the target named is CXCR2 receptor on stably transfected RBL-2H3 cells (human) (UniProt P25025). The assay can be described thus: radioligand binding.
For assay [3], the target named is CXCR1 receptor on stably transfected RBL-2H3 cells (UniProt P25024). The assay can be described thus: radioligand binding.

The Kd is the concentration at which binding is half-saturated. Higher therefore signals a looser complex.

As to CXCL8 P32A mutant (ligand), in assay [1], the EC50 of Ca2+ release, CXCR1-transfected RBL-2H3 cells was 10.7 nM.
On the same count and under the same terms, the same measure for CXCL8 G31V mutant (ligand): 22.9 nM; for CXCL8 P32G mutant (ligand): > 1000 nM.
For “CXCL8 wild type (from UniProt P10145 21-99) (ligand)”, the results for the Kd in assay [2] and in assay [3] were 5.4 nM and 4.1 nM, respectively. The substance further registered an EC50 of Ca2+ release, CXCR1-transfected RBL-2H3 cells in assay [1] of 2.5 nM.

The values are drawn from paper PMC4157346.
